Laboratory results published in patent US20210206851A1 (MacroGenics, published 2021).

What was measured:
[1] = molecular target: T1, His-tagged soluble human LAG-3 (shLAG-3-His) (human, UniProt P18627 23-450); assay: SPR (Biacore); antibody captured on immobilized Fab2 goat-anti-mouse Fc, shLAG-3-His in solution
T1 construct: also called soluble human LAG-3-His fusion protein; extracellular domain of human LAG-3 fused to a His tag; not shown: His tag
T1 sequence: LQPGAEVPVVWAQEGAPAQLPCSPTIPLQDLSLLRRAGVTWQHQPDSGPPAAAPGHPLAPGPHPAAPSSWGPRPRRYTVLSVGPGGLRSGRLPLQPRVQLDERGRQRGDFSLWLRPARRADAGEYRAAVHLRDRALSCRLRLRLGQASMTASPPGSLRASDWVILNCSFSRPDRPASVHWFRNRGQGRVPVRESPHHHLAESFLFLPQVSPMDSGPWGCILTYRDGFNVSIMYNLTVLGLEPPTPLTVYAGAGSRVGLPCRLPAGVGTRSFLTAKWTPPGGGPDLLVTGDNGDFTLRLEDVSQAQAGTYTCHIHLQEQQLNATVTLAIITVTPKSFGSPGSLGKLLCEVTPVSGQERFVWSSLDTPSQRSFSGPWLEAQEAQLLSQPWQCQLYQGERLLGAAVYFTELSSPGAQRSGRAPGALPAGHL

[2] = molecular target: T2, soluble human LAG-3-Fc fusion protein (shLAG-3-Fc) (human, UniProt P18627 23-450, biotinylated in the Daudi cell assay); assay: flow cytometry, blocking of biotinylated soluble human LAG-3-Fc binding to MHC class II on Daudi cells
T2 construct: also called biotinylated-soluble human LAG-3-Fc fusion protein; not shown: Fc portion; detected with goat anti-human Fc gamma
T2 sequence: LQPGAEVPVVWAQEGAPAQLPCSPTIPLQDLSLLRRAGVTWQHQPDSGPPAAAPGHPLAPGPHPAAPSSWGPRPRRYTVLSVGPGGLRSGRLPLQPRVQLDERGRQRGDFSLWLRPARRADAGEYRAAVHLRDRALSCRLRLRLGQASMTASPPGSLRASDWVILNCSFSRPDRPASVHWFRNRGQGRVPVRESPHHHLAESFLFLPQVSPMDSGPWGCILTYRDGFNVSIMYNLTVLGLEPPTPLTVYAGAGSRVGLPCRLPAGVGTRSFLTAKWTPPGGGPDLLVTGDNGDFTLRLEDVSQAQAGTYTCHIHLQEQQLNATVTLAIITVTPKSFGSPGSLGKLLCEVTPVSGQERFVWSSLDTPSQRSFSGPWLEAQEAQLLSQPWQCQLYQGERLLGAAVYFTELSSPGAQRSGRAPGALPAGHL

[3] = molecular target: T1, His-tagged soluble human LAG-3 …; assay: ELISA, blocking; antibody mixed with soluble human LAG-3-His (0.2 ug/ml), binding to immobilized MHC class II
[4] = molecular target: T2, soluble human LAG-3-Fc fusion protein …; assay: flow cytometry, blocking of biotinylated soluble human LAG-3-Fc binding to MHC class II on Daudi cells; remark: listed apart in the source
[5] = molecular target: T1, His-tagged soluble human LAG-3 …; assay: SPR (Biacore); antibody captured on immobilized Fab2 goat anti-human Fc, shLAG-3-His in solution
[6] = molecular target: T2, soluble human LAG-3-Fc fusion protein …; assay: ELISA, blocking; antibody mixed with soluble human LAG-3-Fc (5 ug/mL), binding to immobilized MHC class II
[7] = molecular target: T1, His-tagged soluble human LAG-3 …; assay: SPR (Biacore); antibody captured on immobilized Protein G, shLAG-3-His in solution
[8] = molecular target: T3, soluble human LAG-3 fusion protein (extracellular domain of human LAG-3 fused to murine IgG2a) (human; murine, UniProt P18627 23-450); assay: SPR (Biacore); human LAG-3 ECD-murine IgG2a fusion captured on Fab2 goat-anti-mouse Fc, antibody in solution
T3 construct: also called human LAG-3-murine IgG2a fusion protein; not shown: murine IgG2a
T3 sequence: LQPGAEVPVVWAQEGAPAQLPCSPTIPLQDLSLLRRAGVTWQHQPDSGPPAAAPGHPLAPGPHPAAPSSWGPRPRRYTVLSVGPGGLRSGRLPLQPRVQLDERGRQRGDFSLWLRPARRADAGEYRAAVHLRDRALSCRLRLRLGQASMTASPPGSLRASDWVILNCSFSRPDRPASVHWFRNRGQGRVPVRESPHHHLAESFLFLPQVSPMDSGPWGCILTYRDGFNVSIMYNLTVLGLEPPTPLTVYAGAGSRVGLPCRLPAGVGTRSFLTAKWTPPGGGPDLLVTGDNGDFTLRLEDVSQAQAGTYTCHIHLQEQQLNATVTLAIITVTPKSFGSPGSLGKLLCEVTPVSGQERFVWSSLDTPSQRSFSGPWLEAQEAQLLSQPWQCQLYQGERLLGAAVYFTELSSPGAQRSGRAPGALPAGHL

[9] = molecular target: T4, soluble cynomolgus monkey LAG-3 fusion protein (extracellular domain of cynomolgus monkey LAG-3 fused to … (cynomolgus monkey; murine); assay: SPR (Biacore); cynomolgus LAG-3 ECD-murine IgG2a fusion captured on Fab2 goat-anti-mouse Fc, antibody in solution
T4 construct: extracellular domain; also called cynomolgus LAG-3-murine IgG2a fusion protein

[10] = molecular target: T1, His-tagged soluble human LAG-3 …; assay: SPR (Biacore); antibody captured on immobilized Protein A, shLAG-3-His in solution

B1: LAG-3 mAb 6 (antibody, V domains shown)
VH: EVLLQQSGPELVKPGASVKIPCKASGYTFTDYNMDWVKQSHGESLEWIGDINPDNGVTIYNQKFEGKATLTVDKSSSTAYMELRSLTSEDTAVYYCAREADYFYFDYWGQGTTLTVSS
VL: DIVMTQSHRFMSTSVGDRVSITCKASQDVSSVVAWYQQKPGQSPKLLIFSASYRYTGVPDRFTGSGSGTDFTFTISSVQAADLAVYYCQQHYSTPWTFGGGTKLEIK
notes: Murine monoclonal antibody
Kd [1]: 0.02 nM | IC50 (read off the curve) [2]: ~200 ng/mL

B2: LAG-3 mAb A (antibody, V domains shown)
VH: QVQLQQWGAGLLKPSETLSLTCAVYGGSFSDYYWNWIRQPPGKGLEWIGEINHNGNTNSNPSLKSRVTLSLDTSKNQFSLKLRSVTAADTAVYYCAFGYSDYEYNWFDPWGQGTLVTVSS
VL: EIVLTQSPATLSLSPGERATLSCRASQSISSYLAWYQQKPGQAPRLLIYDASNRATGIPARFSGSGSGTDFTLTISSLEPEDFAVYYCQQRSNWPLTFGQGTNLEIK
notes: also called 25F7; BMS-986016
IC50 (read off the curve) [3]: ~0.2 nM | IC50 (read off the curve) [4]: ~3 ng/mL | IC50 (read off the curve) [2]: ~100 ng/mL

B3: hLAG-3 mAb 1 (1.4), IgG4 (S228P) (antibody)
heavy: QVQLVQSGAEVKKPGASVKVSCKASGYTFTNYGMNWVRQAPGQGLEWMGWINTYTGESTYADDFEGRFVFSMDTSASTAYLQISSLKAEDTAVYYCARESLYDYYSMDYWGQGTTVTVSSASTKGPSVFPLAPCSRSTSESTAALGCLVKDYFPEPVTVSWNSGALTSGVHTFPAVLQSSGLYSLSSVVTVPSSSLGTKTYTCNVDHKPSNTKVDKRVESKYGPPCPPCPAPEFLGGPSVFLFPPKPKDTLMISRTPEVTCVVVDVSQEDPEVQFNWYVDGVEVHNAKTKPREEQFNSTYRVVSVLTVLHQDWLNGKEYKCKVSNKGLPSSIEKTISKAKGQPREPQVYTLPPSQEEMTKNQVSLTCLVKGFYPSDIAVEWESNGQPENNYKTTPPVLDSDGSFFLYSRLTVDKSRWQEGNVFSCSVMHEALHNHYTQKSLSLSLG
light: DIVMTQTPLSLSVTPGQPASISCKSSQSLLHSDAKTYLNWLLQKPGQPPERLIYLVSELDSGVPDRFSGSGSGTDFTLKISRVEAEDVGVYYCWQGTHFPYTFGGGTKVEIKRTVAAPSVFIFPPSDEQLKSGTASVVCLLNNFYPREAKVQWKVDNALQSGNSQESVTEQDSKDSTYSLSSTLTLSKADYEKHKVYACEVTHQGLSSPVTKSFNRGEC
notes: also called hLAG-3 mAb 1 (1.4)^c, f
Kd [5]: 0.05 nM

B4: LAG-3 mAb 3 (antibody, V domains shown)
VH: EVRLQQSGPELVKPGASVKISCKASGYTFTDYNIHWVRQSHGQSLEWIGYIYPYNGDTGYNQKFKTKATLTVDNSSNTAYMELRSLASEDSAVYYCTRWSRNYFGPWFAYWGQGTLVTVSA
VL: DIVLTQSPTSLAVSLGQRATISCKASQSVDYDGDSYMNWYQQKPGQPPKLLIYAASNLESGIPARFSGSGSGTDFTLNIHPVEEEDAATYYCQQSSEDPLTFGAGTKLELK
notes: Murine monoclonal antibody
Kd [1]: 4.4 nM | IC50 (read off the curve) [6]: ~30 nM | IC50 (read off the curve) [4]: ~3 ng/mL

B5: LAG-3 mAb 2 (antibody, V domains shown)
VH: EVQLQQSGPELVKPGASVKISCKTSGYTFTDYNIHWLRQSHGESLEWIGYIYPYSGDIGYNQKFKNRATLTVDNSSSTAYMDLRSLTSEDSAVFYCARWHRNYFGPWFAYWGQGTPVTVSA
VL: DIVLTQSPASLAVSLGQRATISCKASQSVDYDGESYMNWYQQKPGQPPKLLIYVVSNLESGIPARFSGSGSGTDFTLNIHPVEEEDAATYYCQQSSEDPLTFGAGTKLELK
notes: Murine monoclonal antibody
Kd [1]: 1.9 nM | IC50 (read off the curve) [4]: ~3 ng/mL

B6: LAG-3 mAb 4 (antibody, V domains shown)
VH: EVQLHQSGPELVKPGASVKISCKTSGYTFTDYNIHWVKQSHGKSLEWIGYIYPYNGDAGYNQNFKTKATLTVDNSSSTAYMELRSLTSEDSAVYYCARWNMNYFGPWFAYWGQGTLVTVSA
VL: DIVLTQSPASLAVSLGQRATISCKASQSVDYDGVTYINWYQQKPGQPPKLLIFAASNLESGIPARFSGSGSGTDFTLNIHPVEEEDAATYYCQQSNEDPLTFGAGTKLELK
notes: Murine monoclonal antibody
Kd [1]: 0.8 nM | IC50 (read off the curve) [4]: ~3 ng/mL

B7: LAG-3 mAb 5 (antibody, V domains shown)
VH: EVQLQQSGPELVKPGASVKISCKASGYTFTDYNIHWVKQSPGKSLEWIGYIYPYSGDFGYNQKFKSKATLTVDNSSSTAYMDLRSLTSEDSAVFYCARWHRNYFGPWFAYWGQGTLVTVSA
VL: DIVLTQSPASLAVSLGQRATISCKASQSVDYDGESYMNWYQQKPGQPPKLLIYVVSNLESGIPARFSGSGSGTDFTLNIHPVEEEDAATYYCQQSSEDPLTFGAGTKLELK
notes: Murine monoclonal antibody
Kd [1]: 0.9 nM | IC50 (read off the curve) [6]: ~30 nM | IC50 (read off the curve) [4]: ~3 ng/mL

B8: LAG-3 mAb 1 (antibody, V domains shown)
VH: QIQLVQSGPELKKPGETVKISCKASGYTFRNYGMNWVKQAPGKVLKWMGWINTYTGESTYADDFEGRFAFSLGTSASTAYLQINILKNEDTATYFCARESLYDYYSMDYWGQGTSVTVSS
VL: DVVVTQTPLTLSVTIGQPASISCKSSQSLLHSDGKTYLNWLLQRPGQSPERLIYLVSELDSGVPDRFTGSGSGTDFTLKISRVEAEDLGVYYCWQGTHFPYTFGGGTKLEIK
notes: Murine monoclonal antibody; also called murine anti-human antibody LAG-3 mAb 1
Kd [1]: 0.013 nM | IC50 (read off the curve) [6]: ~20 nM | IC50 (read off the curve) [4]: ~3 ng/mL | IC50 (read off the curve) [2]: ~100 ng/mL | Kd [7]: 0.01 nM

B9: hLAG-3 mAb 1 (1.4) (constant region not stated) (antibody, V domains shown)
VH: QVQLVQSGAEVKKPGASVKVSCKASGYTFTNYGMNWVRQAPGQGLEWMGWINTYTGESTYADDFEGRFVFSMDTSASTAYLQISSLKAEDTAVYYCARESLYDYYSMDYWGQGTTVTVSS
VL: DIVMTQTPLSLSVTPGQPASISCKSSQSLLHSDAKTYLNWLLQKPGQPPERLIYLVSELDSGVPDRFSGSGSGTDFTLKISRVEAEDVGVYYCWQGTHFPYTFGGGTKVEIK
notes: also called hLAG-3 1 (1.4); humanized hLAG-3 1 (1.4)
Kd [8]: < 0.29 nM | Kd [9]: < 0.53 nM | IC50 (read off the curve) [3]: ~0.3 nM

B10: hLAG-3 mAb 1 (1.2), human IgG1 (AA) (antibody, V domains shown)
VH: QVQLVQSGAEVKKPGASVKVSCKASGYTFTNYGMNWVRQAPGQGLEWMGWINTYTGESTYADDFEGRFVFSMDTSASTAYLQISSLKAEDTAVYYCARESLYDYYSMDYWGQGTTVTVSS
VL: DIVMTQTPLSLSVTPGQPASISCKSSQSLLHSDGKTYLNWLLQRPGQSPERLIYLVSELDSGVPDRFSGSGSGTDFTLKISRVEAEDVGVYYCWQGTHFPYTFGGGTKVEIKR
notes: also called hLAG-3 1 (1.2)
Kd [10]: 0.01 nM

B11: hLAG-3 mAb 1 (1.4), human IgG1 (AA) (antibody)
heavy: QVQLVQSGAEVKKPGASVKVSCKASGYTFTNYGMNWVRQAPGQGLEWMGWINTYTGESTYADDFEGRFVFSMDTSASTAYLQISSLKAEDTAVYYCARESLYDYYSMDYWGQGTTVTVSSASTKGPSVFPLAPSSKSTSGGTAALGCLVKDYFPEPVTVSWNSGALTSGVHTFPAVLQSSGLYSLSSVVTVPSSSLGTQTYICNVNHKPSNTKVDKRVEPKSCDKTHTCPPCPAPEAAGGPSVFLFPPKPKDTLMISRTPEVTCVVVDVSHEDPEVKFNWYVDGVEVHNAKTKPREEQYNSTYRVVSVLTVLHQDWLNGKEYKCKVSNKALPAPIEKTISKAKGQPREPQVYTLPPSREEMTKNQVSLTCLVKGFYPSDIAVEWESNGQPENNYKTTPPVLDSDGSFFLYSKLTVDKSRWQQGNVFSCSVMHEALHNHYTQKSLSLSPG
light: DIVMTQTPLSLSVTPGQPASISCKSSQSLLHSDAKTYLNWLLQKPGQPPERLIYLVSELDSGVPDRFSGSGSGTDFTLKISRVEAEDVGVYYCWQGTHFPYTFGGGTKVEIKRTVAAPSVFIFPPSDEQLKSGTASVVCLLNNFYPREAKVQWKVDNALQSGNSQESVTEQDSKDSTYSLSSTLTLSKADYEKHKVYACEVTHQGLSSPVTKSFNRGEC
notes: also called hLAG-3 mAb 1 (1.4)^c, e
Kd [5]: 0.04 nM

B12: hLAG-3 mAb 1 (2.2), human IgG1 (AA) (antibody, V domains shown)
VH: QVQLVQSGAEVKKPGASVKVSCKASGYTFTNYGMNWVRQAPGQGLEWMGWINTYTGESTYADDFEGRFVFSMDTSASTAYLQISSLKAEDTAVYFCARESLYDYYSMDYWGQGTTVTVSS
VL: DIVMTQTPLSLSVTPGQPASISCKSSQSLLHSDGKTYLNWLLQRPGQSPERLIYLVSELDSGVPDRFSGSGSGTDFTLKISRVEAEDVGVYYCWQGTHFPYTFGGGTKVEIKR
notes: also called hLAG-3 1 (2.2)
Kd [10]: 0.3 nM

B13: hLAG-3 mAb 1 (1.1), human IgG1 (AA) (antibody, V domains shown)
VH: QVQLVQSGAEVKKPGASVKVSCKASGYTFTNYGMNWVRQAPGQGLEWMGWINTYTGESTYADDFEGRFVFSMDTSASTAYLQISSLKAEDTAVYYCARESLYDYYSMDYWGQGTTVTVSS
VL: DIVMTQTPLSLSVTPGQPASISCKSSQSLLHSDGKTYLNWLLQKPGQSPERLIYLVSELDSGVPDRFSGSGSGTDFTLKISRVEAEDVGVYYCWQGTHFPYTFGGGTKVEIKR
notes: also called hLAG-3 1 (1.1)
Kd [10]: 0.04 nM

B14: hLAG-3 mAb 6 (1.1) (antibody, V domains shown)
VH: QVQLVQSGAEVKKPGASVKVSCKASGYTFTDYNMDWVRQAPGQGLEWMGDINPDNGVTIYNQKFEGRVTMTTDTSTSTAYMELRSLRSDDTAVYYCAREADYFYFDYWGQGTTLTVSS
VL: DIQMTQSPSSLSASVGDRVTITCRASQDVSSVVAWYQQKPGKAPKLLIYSASYRYTGVPSRFSGSGSGTDFTLTISSLQPEDFATYYCQQHYSTPWTFGGGTKLEIK
notes: also called hLAG-3 6 (1.1); humanized LAG-3 mAb 6
Kd [8]: < 0.1 nM | Kd [9]: 3.7 nM | IC50 (read off the curve) [3]: ~0.3 nM
